Assays:
Format in all cases: in vivo
[1] = test system: male Balb/c mice aerosolized with LPS; experiment: LPS aerosol acute lung inflammation, s.c. or i.v. treatment (Example 2)
Protocol: A second study was performed using a slightly different model, which imply a different mouse strain and gender (male Balb/c instead of C57BL/6) a different LPS strain and serotype (Salmonella enterica instead of E. Coli) and a different LPS administration (aerosol—3.5 mg/7 mL over 30 min—instead of intranasal). PA401 doses of 4, 40 and 400 μg/kg were administered either by s.c. or i.v. route at t=−5 and t=+3 h from LPS exposure. BAL total and differential cell count were evaluated at t=8 h, a later time point compared to the previous study.
Saline aerosolized mice and mice receiving an intra tracheal administration of Dexamethasone (20 μg/20 ∥l/mouse at t=−1 h) were used as control.

[2] = test system: C57BL/6J female mice exposed to cigarette smoke; experiment: Acute model of cigarette smoke induced lung inflammation, four-day exposure (Example 3)
Protocol: Lung inflammation was induced in C57BL/6J female mice (a susceptible strain) by exposure to cigarette smoke of 4 to 6 cigarette over a four-day period. Dose response activity of subcutaneous PA401 treatment at the doses of 4, 40 and 400 μg/kg administered at t=+30 min and t=+6 h from smoke exposure, on cell infiltrates on bronchoalveolar lavages was evaluated 24 h after last cigarette smoke exposure. Air exposed, and Roflumilast (5 mg/kg oral) treated animals serve as controls.

[3] = test system: male Balb/c mice exposed to LPS aerosol; experiment: LPS aerosol lung inflammation, intra-tracheal local delivery to the lung (Example 6)
Protocol: In this experiment lung inflammation was induced by the delivery of LPS by aerosol (Salmonella enterica, 3.5 mg/7 mL over 30 min) in male Balb/c mice. PA401 was administered intra-tracheally (i.t.) using a MicroSprayer (FJM-250 syringe; PennCentury), a device that allows delivery of a plume of aerosol (mass median diameter 16-22 μm) directly into the lungs. PA401 i.t. administration was performed at the doses of 100, 40, 10 and 4 μg/kg either 1 h before LPS exposure, or 1 h after the end of LPS exposure. Bronchoalveolar lavage (BAL) was performed 8 h post LPS exposure and total cell and neutrophil numbers were measured. Dexamethasone 20 μg/20 μl mouse i.t. was used as reference compound.

[4] = test system: C57BL/6J female mice intranasal instilled with LPS; experiment: LPS-induced acute lung inflammation, intranasal LPS instillation (Example 1)
Protocol: To assess potential of PA401 as anti-inflammatory in models of acute lung neutrophilia, a dose-response study with subcutaneous administration of PA401 at doses of 4, 40, 200 and 400 μg/Kg in C57BL/6J female mice intranasal instilled with LPS (0.3 μg/mouse, serotype […]) was performed. Sham instilled (saline) and Dexamethasone 3 mg/kg s.c. (administered at t=−1 h before LPS instillation) treated animals were used as controls. Bronchoalveolar lavage (BAL) was performed 4 h post LPS instillation and total cell count on BAL samples, as well as differential cell count on BAL cytospin were measured.

[5] = test system: C57BL/6J female mice exposed to cigarette smoke; experiment: Sub-chronic model of cigarette smoke induced lung inflammation, eleven-day exposure, dose frequency (Example 4)
Protocol: In this study lung inflammation was induced in C57BL/6J female mice by exposure to cigarette smoke of 4 to 6 cigarettes over an eleven-day period. Dose frequency activity of subcutaneous PA401 treatment at the optimal dose of 400 μg/kg, based on the study in example 3, administered at t=+30 min and t=+6 h from smoke exposure (twice a day: b.i.d.), once daily at +3 h (q.d) and every other day (q.o.d) at +3 h, on cell infiltrates on bronchoalveolar lavages was evaluated 24 h after last cigarette smoke exposure. Air exposed, and Roflumilast (5 mg/kg oral) treated animals serve as controls.

[6] = test system: C57BL/6J female mice exposed to cigarette smoke; experiment: Sub-chronic model of cigarette smoke induced lung inflammation, eleven-day exposure, 400 vs 40 μg/kg (Example 5)
Protocol: In this study lung inflammation was induced in C57BL/6J female mice by exposure to cigarette smoke of 4 to 6 cigarettes over an eleven-day period. PA401 at the dose of 400 μg/kg daily subcutaneous was compared to the dose of 40 μg/kg daily subcutaneous. Treatment was performed at t+3 h and effects on cell infiltrates on bronchoalveolar lavages were evaluated 24 h after last cigarette smoke exposure. Air exposed, Roflumilast (5 mg/kg oral) treated animals as well as animals treated with the CXCR2 antagonist SCH527123 (10 mg/kg twice a day oral-total daily dose 20 mg/kg) serve as controls.

[7] = i.t. 100, 40, 10 and 4 μg/kg, 1 h before or 1 h after LPS, BAL 8 h post LPS
[8] = s.c. 4-400 μg/Kg, BAL cytospin 4 h post LPS
[9] = 400 μg/kg s.c., all treatment frequencies (b.i.d., q.d., q.o.d.)
[10] = 400 μg/kg s.c., b.i.d. and q.d.

B1: PA401: del6F17KF21KE70KN71K IL-8 mutant; modified IL-8 with increased GAG binding affinity and down-regulated GPCR activity (protein, UniProt P10145 23-99, looked up, variant del1-6 F17K F21K E70K N71K)
Interleukin-8: AVLPRCQCIKTYSKPKHPKKIKELRVIESGPHCANTEIIVKLSDGRELCLDPKENWVQRVVEKFLKRAKKS
number of total cells in the BAL ([1]; 4, 40 and 400 μg/kg s.c. or i.v. at t=-5 and t=+3 h from LPS, BAL at t=8 h): highly significant reduction
neutrophils count in the BAL ([1]; 4, 40 and 400 μg/kg s.c. or i.v., BAL at t=8 h): reduction
inhibitory effect compared with intra tracheal dexamethasone ([1]; PA401 i.v., Dexamethasone 20 μg/mouse i.t. at t=-1 h): reaching the same inhibitory effects of intra tracheal administration of dexamethasone
activity by route of administration (intravenous vs subcutaneous) ([1]; i.v. vs s.c., BAL at t=8 h): more significant when administered by intravenous than by subcutaneous route
cell subtypes (neutrophil, macrophage, epithelial cells, lymphocyte) in BAL at the other two doses ([2]; 4 and 40 μg/kg s.c.): Significant effect on most of these cell subtypes
total cell infiltrates in BAL ([2]; 40 and 400 μg/kg s.c.): Highly significant effect
inhibitory effect compared with Roflumilast 5 mg/kg ([2]; PA401 400 μg/kg s.c., Roflumilast 5 mg/kg oral): comparable of that obtained with Roflumilast 5 mg/kg
epithelial cells numbers in BAL ([2]; highest dose (400 μg/kg s.c.)): significantly reduced
lymphocyte numbers in BAL ([2]; highest dose (400 μg/kg s.c.)): significantly reduced
macrophage numbers in BAL ([2]; highest dose (400 μg/kg s.c.)): significantly reduced
neutrophil numbers in BAL ([2]; highest dose (400 μg/kg s.c.)): significantly reduced
cigarette smoke induced increase in total cell number recovered in the BAL ([2]; s.c. 4, 40 and 400 μg/kg at +30 min and +6 h, BAL 24 h after last exposure): dose dependently inhibited
neutrophil number in BAL [3, 7]: neutrophil number reduction
total cells in BAL [3, 7]: significant dose dependent reduction
activity on BAL cell counts at single doses ([3]; i.t. doses of 100, 40 and 10 μg/kg): significantly active
improved activity of therapeutic treatment (t=+1 h) compared to prophylactic treatment (-1 h) ([3]; i.t., BAL 8 h post LPS): about 10%
inhibition of cell infiltration in the BAL compared with Dexamethasone 3 mg/kg ([4]; PA401 200 and 400 μg/kg s.c., Dexamethasone 3 mg/kg s.c.): comparable to that obtained with the treatment with a high dose of Dexamethasone
total number of cells infiltrated in lung as assessed in the BAL fluid ([4]; s.c. 4, 40, 200 and 400 μg/Kg, BAL 4 h post LPS instillation): dose-dependent reduction
number of lymphocytes in BAL [4, 8]: significant reduction
number of neutrophils in BAL [4, 8]: significant reduction
lowest dose with significant effect on neutrophils and lymphocytes ([4]; s.c., BAL 4 h post LPS): 4 µg/kg
total cell infiltrates in BAL ([5]; 400 μg/kg s.c. twice a day, daily and every other day, 11-day smoke): Significant effect
epithelial cells numbers in BAL [5, 9]: significantly reduced
neutrophil numbers in BAL [5, 9]: significantly reduced
lymphocyte numbers in BAL [5, 10]: significant reduction
macrophage numbers in BAL [5, 10]: significant reduction
activity on mixed cell infiltration, twice a day vs once a day ([5]; 400 μg/kg subcutaneously, 11-day repeated exposure): comparable activity
inhibitory effect compared with Roflumilast 5 mg/kg ([5]; PA401 400 μg/kg s.c. twice and once a day, Roflumilast 5 mg/kg oral): comparable of that obtained with Roflumilast 5 mg/kg
epithelial cells numbers in BAL ([6]; 400 and 40 μg/kg daily s.c.): significant reduction
lymphocyte numbers in BAL ([6]; 400 and 40 μg/kg daily s.c.): significant reduction
macrophage numbers in BAL ([6]; 400 and 40 μg/kg daily s.c.): significant reduction
neutrophil numbers in BAL ([6]; 400 and 40 μg/kg daily s.c.): significant reduction
total cell infiltrates in BAL ([6]; 400 and 40 μg/kg daily s.c., 11-day smoke): Significant effect
inhibitory effect compared with Roflumilast and CXCR2 antagonist SCH527123 ([6]; PA401 400 μg/kg daily s.c., Roflumilast 5 mg/kg oral, SCH527123 10 mg/kg twice a day oral): comparable of that obtained with Roflumilast 5 mg/kg and the CXCR2 antagonist SCH527123

From patent US20120288474A1, “COMPOSITION FOR TREATMENT OF CXCL8-MEDIATED LUNG INFLAMMATION” (PROTAFFIN BIOTECHNOLOGIE AG, priority 2009, published 2012)
